In PMC3169405:

Molecular target: Bartonella henselae Nudix hydrolase BH02020 (Bh-MutT) (Bartonella henselae strain Houston-1)
Assay: SEC; Superdex75 size-exclusion column, retention time 68 min; 21-residue N-terminal tag present

- stoichiometry N: 2
Substance: Bartonella henselae Nudix hydrolase BH02020 (Bh-MutT) (enzyme)
